This test concerns the target T1, human OX40 on the surface of target cells (HEK293 cells expressing human OX40, jurkat cells engineered to … (human, UniProt P43489 29-277)).
T1 construct: whole, on cells; also called huOX40
T1 sequence (looked up): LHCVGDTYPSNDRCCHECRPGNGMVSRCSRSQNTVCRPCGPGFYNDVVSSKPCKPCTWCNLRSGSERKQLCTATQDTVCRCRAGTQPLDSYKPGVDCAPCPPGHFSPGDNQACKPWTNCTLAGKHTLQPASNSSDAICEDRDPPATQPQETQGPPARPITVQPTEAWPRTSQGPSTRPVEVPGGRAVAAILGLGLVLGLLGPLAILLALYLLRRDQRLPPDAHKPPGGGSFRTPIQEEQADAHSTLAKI
Description: flow cytometry on HEK293 cells expressing human OX40, anti-human IgG Fc PE, MFI. For orientation: A flow cytometer gives signals particle by particle.
Description: The cell lines used were HEK293 cells expressing human OX40 or cyno OX40, jurkat cells, and jurkat cells engineered to express human OX40. […] Frozen target cells were thawed and seeded at 5×10⁴ cells per well.
For live dead cell discrimination cells were stained according to manufacturer's protocol using the LIVE/DEAD™ Fixable Yellow Dead Cell Stain Kit (Molecular Probes, L34959).

B1: bispecific antibody L1 (anti-CD28/anti-OX40) (bispecific antibody, human IgG1, kappa, L234A L235A)
light: not shown
heavy: not shown
chain: DVQLVESGGGVVQPGGSLRLSCAASGSFFSIDTMDWYRQAPGKQRELVTGVTSGGLTNYADSVKGRFTISIDNAKNTVYLQMNSLRPEDTALYYCSARIRTSGGGGWSTYWGQGTLVTVSSGGGGSDKTHTCPPCPAPEAAGGPSVFLFPPKPKDTLMISRTPEVTCVVVDVSHEDPEVKFNWYVDGVEVHNAKTKPREEQYNSTYRVVSVLTVLHQDWLNGKEYKCKVSNKALPAPIEKTISKAKGQPREPQVCTLPPSRDELTKNQVSLSCAVKGFYPSDIAVEWESNGQPENNYKTTPPVLDSDGSFFLVSKLTVDKSRWQQGNVFSCSVMHEALHNRFTQKSLSLSPG
notes: also called L1 & L4 OX40 arm x L1 & L3 & L2 CD28 arm
As a reminder, the EC50 (read off the curve) is the concentration that produces a half-maximal response. A high value points to lower potency in that assay. In the case of B1, the “EC50 (read off the curve)” value was about 0.8 nM.

Source of the values: US20260092113A1 (Sanofi, published 2026).
